The values that follow come from US20230340132A1, “ANTI-ADENOSINE RECEPTOR (A2aR) ANTIBODIES” (NA Biotech Corp, priority 2020, published 2023).

One test deals with tumor. As to conditions: mice treated with A2aR antagonist; background statement; cited from earlier work.
For test [1], the target named is human adenosine receptor A1 (human) (UniProt P30542). The test is described as follows: flow cytometry on HEK293T-A1 cells; anti-FLAG 2 ug/mL, positive control; duplicate 1.
Test [2] shares this target. Briefly: flow cytometry on HEK293T-A1 cells; anti-FLAG 2 ug/mL, positive control; duplicate 2.
Test [3] has as its target T1, human adenosine receptor A3 (human, UniProt P0DMS8 1-318).
T1 construct: whole, on cells; the tag is not described; also called A3R; human A3R
T1 sequence (looked up): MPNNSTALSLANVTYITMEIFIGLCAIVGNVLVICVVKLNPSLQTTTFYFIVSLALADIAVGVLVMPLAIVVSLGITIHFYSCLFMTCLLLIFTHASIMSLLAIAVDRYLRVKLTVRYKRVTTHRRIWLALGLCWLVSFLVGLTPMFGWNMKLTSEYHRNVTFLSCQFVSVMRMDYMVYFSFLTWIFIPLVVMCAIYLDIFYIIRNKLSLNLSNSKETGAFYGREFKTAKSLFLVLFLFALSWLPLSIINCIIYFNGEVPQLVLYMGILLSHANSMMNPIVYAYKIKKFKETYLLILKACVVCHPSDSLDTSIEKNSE
Briefly: flow cytometry on HEK293T-A3 cells; anti-FLAG 2 ug/mL, positive control; duplicate 1.

Test [4] deals with T1, human adenosine receptor A3. Briefly: flow cytometry on HEK293T-A3 cells; anti-FLAG 2 ug/mL, positive control; duplicate 2.
In test [5] the target is T2, human adenosine A2A receptor (A2aR) (human, UniProt P29274 1-412). Briefly: flow cytometry on HEK293T-A2A cells; anti-FLAG 2 ug/mL, positive control; duplicate 1.
T2 sequence (P29274 whole entry): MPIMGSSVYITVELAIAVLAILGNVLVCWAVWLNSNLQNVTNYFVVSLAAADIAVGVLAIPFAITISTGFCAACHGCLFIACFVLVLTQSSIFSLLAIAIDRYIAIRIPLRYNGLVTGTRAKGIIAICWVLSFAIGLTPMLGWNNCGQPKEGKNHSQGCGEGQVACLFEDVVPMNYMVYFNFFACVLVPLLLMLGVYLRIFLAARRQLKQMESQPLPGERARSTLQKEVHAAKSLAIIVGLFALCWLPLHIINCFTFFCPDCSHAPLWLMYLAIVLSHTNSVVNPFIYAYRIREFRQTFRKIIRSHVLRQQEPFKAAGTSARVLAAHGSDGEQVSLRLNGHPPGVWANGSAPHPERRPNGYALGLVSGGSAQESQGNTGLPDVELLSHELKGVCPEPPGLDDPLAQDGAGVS
The target in test [6] is T2, human adenosine A2A receptor (A2aR). The test is described as follows: flow cytometry on HEK293T-A2A cells; anti-FLAG 2 ug/mL, positive control; duplicate 2.
Test [7] deals with T3, human adenosine receptor A2B (human, UniProt P29275 1-332).
T3 construct: whole, on cells; the tag is not described; also called A2bR; human A2bR
T3 sequence (looked up): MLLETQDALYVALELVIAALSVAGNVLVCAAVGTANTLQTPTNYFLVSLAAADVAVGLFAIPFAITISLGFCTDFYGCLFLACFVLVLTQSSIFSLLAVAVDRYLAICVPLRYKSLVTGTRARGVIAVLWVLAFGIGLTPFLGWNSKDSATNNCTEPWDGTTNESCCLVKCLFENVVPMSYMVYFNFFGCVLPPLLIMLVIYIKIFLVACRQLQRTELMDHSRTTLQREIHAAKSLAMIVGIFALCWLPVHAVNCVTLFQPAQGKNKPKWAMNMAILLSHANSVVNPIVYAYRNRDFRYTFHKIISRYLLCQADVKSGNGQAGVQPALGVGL
The test is described as follows: flow cytometry on HEK293T-A2B cells; anti-FLAG 2 ug/mL, positive control; duplicate 1.

The target in test [8] is T3, human adenosine receptor A2B. Briefly: flow cytometry on HEK293T-A2B cells; anti-FLAG 2 ug/mL, positive control; duplicate 2.
In test [9] the target is T4, mouse adenosine receptor A2A (mouse, UniProt Q60613 1-410).
T4 construct: whole, on cells; the tag is not described; also called mouse A2aR; mouse A2R
T4 sequence (Q60613 whole entry): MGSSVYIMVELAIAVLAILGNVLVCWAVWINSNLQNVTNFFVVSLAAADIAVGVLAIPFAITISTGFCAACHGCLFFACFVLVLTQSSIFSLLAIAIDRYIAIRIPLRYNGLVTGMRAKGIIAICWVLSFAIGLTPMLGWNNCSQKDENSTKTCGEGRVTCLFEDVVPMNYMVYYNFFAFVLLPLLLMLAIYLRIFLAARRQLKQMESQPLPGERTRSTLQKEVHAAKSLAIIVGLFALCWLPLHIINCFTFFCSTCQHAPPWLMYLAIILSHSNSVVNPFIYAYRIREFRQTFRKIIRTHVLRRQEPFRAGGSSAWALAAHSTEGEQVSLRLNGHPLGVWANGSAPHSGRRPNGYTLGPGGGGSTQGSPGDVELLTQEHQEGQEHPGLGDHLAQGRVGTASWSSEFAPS
Briefly: flow cytometry on HEK293T-mA2A cells; anti-FLAG 2 ug/mL, positive control; duplicate 1.

For test [10], the target named is T4, mouse adenosine receptor A2A. The test is described as follows: flow cytometry on HEK293T-mA2A cells; anti-FLAG 2 ug/mL, positive control; duplicate 2.
Test [11] deals with human adenosine receptor A1 (human) (UniProt P30542). The test is described as follows: flow cytometry on HEK293T-A1 cells; isotype control 10 nM; duplicate 1.
Test [12] has the same target. Briefly: flow cytometry on HEK293T-A1 cells; isotype control 10 nM; duplicate 2.
Test [13] has the same target. The test is described as follows: flow cytometry on HEK293T-A1 cells; isotype control 50 nM; duplicate 1.
Test [14] has the same target. Briefly: flow cytometry on HEK293T-A1 cells; isotype control 50 nM; duplicate 2.
Test [15] addresses T1, human adenosine receptor A3. The test is described as follows: flow cytometry on HEK293T-A3 cells; isotype control 10 nM; duplicate 1.
For test [16] the target is unchanged. Briefly: flow cytometry on HEK293T-A3 cells; isotype control 10 nM; duplicate 2.
For test [17] the target is unchanged. The test is described as follows: flow cytometry on HEK293T-A3 cells; isotype control 50 nM; duplicate 1.
Test [18] has the same target. Briefly: flow cytometry on HEK293T-A3 cells; isotype control 50 nM; duplicate 2.
In test [19] the target is T2, human adenosine A2A receptor (A2aR). Briefly: flow cytometry on HEK293T-A2A cells; isotype control 10 nM; duplicate 1.
The target is the same in test [20]. The test is described as follows: flow cytometry on HEK293T-A2A cells; isotype control 10 nM; duplicate 2.
For test [21] the target is unchanged. Briefly: flow cytometry on HEK293T-A2A cells; isotype control 50 nM; duplicate 1.
Test [22] shares this target. The test is described as follows: flow cytometry on HEK293T-A2A cells; isotype control 50 nM; duplicate 2.
The target of test [23] is T3, human adenosine receptor A2B. The test is described as follows: flow cytometry on HEK293T-A2B cells; isotype control 10 nM; duplicate 1.
Test [24] shares this target. The test is described as follows: flow cytometry on HEK293T-A2B cells; isotype control 10 nM; duplicate 2.
Test [25] shares this target. Briefly: flow cytometry on HEK293T-A2B cells; isotype control 50 nM; duplicate 1.
For test [26] the target is unchanged. The test is described as follows: flow cytometry on HEK293T-A2B cells; isotype control 50 nM; duplicate 2.
Test [27] deals with T4, mouse adenosine receptor A2A. Briefly: flow cytometry on HEK293T-mA2A cells; isotype control 10 nM; duplicate 1.
For test [28] the target is unchanged. Briefly: flow cytometry on HEK293T-mA2A cells; isotype control 10 nM; duplicate 2.
The target is the same in test [29]. Briefly: flow cytometry on HEK293T-mA2A cells; isotype control 50 nM; duplicate 1.
The target is the same in test [30]. Briefly: flow cytometry on HEK293T-mA2A cells; isotype control 50 nM; duplicate 2.
In test [31] the target is T2, human adenosine A2A receptor (A2aR). Briefly: cell-based or functional assay.
Test [32] concerns the target T1, human adenosine receptor A3. The test is described as follows: flow cytometry on HEK293T cells stably expressing human A3R.
Test [33] addresses T3, human adenosine receptor A2B. The test is described as follows: flow cytometry on HEK293T cells stably expressing human A2bR.
Test [34] addresses T4, mouse adenosine receptor A2A. The test is described as follows: flow cytometry on HEK293T cells stably expressing mouse A2aR.
A further test concerns the target T5, human A2aR (Homo sapiens, UniProt P29274).
T5 construct: expressed in transfected cells; host or cells: Expi293
Briefly: FACS screening of hybridoma clones on human A2aR-expressing Expi293 cells. It counts as binding. The note with it: antibodies from hybridoma clones. On the procedure:
(§1) Serum titration was performed using Fluorescence-Activated Cell Sorting (FACS) pursuant to standard procedures. Human A2aR-expressing Expi293 cells were first added to 96-well plate (1×10^5 cells per well), 50 μl of serial diluted serum (1:50, 1;150, 1:450, 1:[…], 1:12150) from each individual mouse was incubated with cells for 30 min. on ice. After washing with FACS buffer (2% Fetal bovine serum, 2 mM EDTA in PBS), Alex Fluor 647-conjugated anti mouse IgG was added and incubated for 20 min on ice. Cells were resuspending with 100 μl FACS buffer after two times wash and ready for FACS analysis (BD LSR II Flow Cytometer, HTS). […] (MFI: mean fluorescence intensity).
(§2) Primary screening of the hybridoma supernatants in the 96-well plates was performed using the same FACS procedure as described for serum titration except following changes: 1) Human A2aR-expressing Expi293 cells (expressing GFP) were mixed at 1:1 ratio with parental Expi293 (no A2aR expression) and added to 96-well plates (2×10^5 cells per well), 2) 50 μl hybridoma supernatant transferred from each well of 96-well plates was incubated with cells for 30 min. on ice.
(§3) Sub-cloning was performed by limiting dilution method. In short, the positive wells identified by FACS were seeded into 96-well plate at an average density of 1 cell/well. The […] was placed in incubator for 7-10 days to allow the growth of the cells. The growth of cells was monitored periodically. At about day 4, the wells on the plate were observed under phase contrast microscopy and the wells which appeared to have single colony growing (i.e., only one clumping of hybridomas) were recorded. The cells from the single colony wells were screed by FACS using the same procedure as described for primary screening of hybridoma when the confluence of the cell reached about 50%.

A further test deals with parental Expi293 cells. The test is described as follows: FACS screening of hybridoma clones on parental Expi293 cells. Type of test: binding. As to conditions: antibodies from hybridoma clones. On the procedure: as §1, §2, §3

Chain of human adenosine receptor A1 (human) (P30542 whole entry): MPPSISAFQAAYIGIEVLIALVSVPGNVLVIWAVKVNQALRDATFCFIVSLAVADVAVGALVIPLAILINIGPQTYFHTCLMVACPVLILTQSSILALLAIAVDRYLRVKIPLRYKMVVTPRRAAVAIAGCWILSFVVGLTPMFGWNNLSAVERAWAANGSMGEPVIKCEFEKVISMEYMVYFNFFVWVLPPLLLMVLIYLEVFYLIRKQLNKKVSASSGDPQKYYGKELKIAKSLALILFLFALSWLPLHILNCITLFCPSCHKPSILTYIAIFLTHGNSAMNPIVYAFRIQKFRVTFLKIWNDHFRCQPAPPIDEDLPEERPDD
T5 sequence (P29274 whole entry): as the sequence (P29274 whole entry) above

For the molecule `Nc1nc(NCCc2ccc(O)cc2)nc2nc(-c3ccco3)nn12` [ZM241385], the tumor growth entry in the test with tumor is given as “significant delay in tumor growth”.
In the case of Anti-FLAG antibody (Abcam, ab72469), the Geo Mean in test [1] was determined as 53.3; in test [2] it was 121; in [3], 48.2; in test [4], 47.4; in [5], 183; in test [6], 223. Further, the Geo Mean in test [7] stood at 78.6; in test [8], 50.1; in test [9] it was 70.4; in [10], 105.
Consider mouse IgG2a isotype control (antibody), for which the Geo Mean came to 2.48 in [11]; 2.24 in test [12]; 2.5 in test [13]; 2.7 in test [14]; 1.9 in test [15]; 1.81 in [16]. For the same molecule, the Geo Mean in test [17] was 1.87; in [18], 1.84; in test [19], 2.97; in test [20] it was 2.82; in [21], 2.92; in test [22] it was 2.83. Moreover, the Geo Mean is 2.42 in test [23]; 2.41 in test [24]; 2.33 in test [25]; 2.69 in test [26]; 2 in test [27]; 2.39 in [28]. Moreover, the Geo Mean was found to be 2.05 in test [29] and 2.06 in test [30].

B1: anti-human A2aR monoclonal antibody 3F6-9G5 (mouse IgG2a format) (antibody, V domains shown)
VH: QVQLQQPGTELVKPGAPVRLSCKASGFAFTSYWMNWVRQRPGRGLEWIGRIDPSDSEAHYHHKFWGKATLTVDKSSSTVYIQLNGLTSEDSAVYYCLRSLYGKGDYWGHGTTLTVSS
VL: DVLMTQTPLSLSVRLGDQASISCRSSQSLVHRNGNTYLEWYLQRPGQSPKLLIYKVSNRFSGVPDRFSGSGSGTDFTLKISRVEAEDLGVYYCYQGSHVPLTFGSGTKLEIK
notes: Tested as whole mouse IgG2a / kappa, purified from hybridoma supernatant or made recombinantly in Expi293 cells
Regarding B1, the “IC50 (M), cAMP-Glo assay of NECA-induced cAMP in HEK293 cells stably expressing human A2aR” value in test [31] was 1.57e-09 M. In addition, the binding result in test [32] is “no binding (tested: 2, 10 and 50 nM tested)”; in test [33], “no binding (tested: 2, 10 and 50 nM tested)”; in [34] it was “no binding (tested: 2, 10 and 50 nM tested)”.

B2: anti-human A2aR monoclonal antibody 3F8-12E9 (antibody, mouse IgG2a, V domains shown)
VH: QVQLQQPGTELVKPGAPVKLSCKASGFTFTRYWMNWVKQRPGRGLEWIGRIDPSDSETHYNHKFWGKATLTVDKSSSTAYIQLNSLTSEDSAVYYCLRSLYGKGDYWGQGTTLTVSS
VL: DVLMTQTPLSLSVGLGDQASISCRSSQSIVHSNGNTYLEWYLQRPGQSPKLLIYKVSNRFSGVPDRFSGSGSGTDFTLKISRVEAEDLGVYYCYQGSHVPLTFGSGTKLEIK
In the case of B2, the “IC50 (M), cAMP-Glo assay of NECA-induced cAMP in HEK293 cells stably expressing human A2aR” value in test [31] came out at 4.35e-09 M. Besides, the “binding to human A2aR-expressing cells (FIG. 2)” value with human A2aR is listed as “specific binding”. Moreover, the “binding to parental Expi293 cells (FIG. 2)” value in the test with parental Expi293 cells is “not to parental Expi293 cells”.
